Measurements as given in patent US8173600 (CHIESI FARMACEUTICI S P A, dated 2012).
Numbered stars: 1 amine (or outer) side, 2 acyl side, 3 side chain; on linkers, the order of the positions; unused ones are H or OH. Square brackets hold non-standard residues; d marks the D form. * marks the point of attachment. 2,6‑difluorophenyl ester = C-terminal 2,6-difluorophenyl ester (dfp), Fc1cccc(F)c1O*; Asp(OMe) = aspartyl methyl ester, COC(=O)C[C@H](N[*:1])C(=O)[*:2]; Quinaldoyl = O=C(c1ccc2ccccc2n1)*

Target: T1, human recombinant caspase-2 (human, UniProt P42575 170-452, limits assumed)
T1 sequence (looked up): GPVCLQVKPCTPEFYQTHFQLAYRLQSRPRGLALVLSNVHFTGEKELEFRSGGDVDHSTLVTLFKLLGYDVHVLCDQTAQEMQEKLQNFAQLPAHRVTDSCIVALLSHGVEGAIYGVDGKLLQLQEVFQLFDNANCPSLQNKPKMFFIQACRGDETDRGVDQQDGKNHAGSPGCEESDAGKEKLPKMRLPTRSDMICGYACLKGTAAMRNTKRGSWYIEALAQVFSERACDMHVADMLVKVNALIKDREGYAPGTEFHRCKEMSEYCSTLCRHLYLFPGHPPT
Experiment: cell-based or functional assay

B1: 2-Quinolinylcarbonyl-L-Valinyl-L-Aspartyl (methyl ester)-L-Valinyl-L-Alanyl-L-Aspartyl (methyl ester) 2,6-difluorophenyl ester (peptide)
peptide: Quinaldoyl-V[Asp(OMe)]VA[Asp(OMe)]-{2,6‑difluorophenyl ester}
SMILES: COC(=O)C[C@H](NC(=O)[C@@H](NC(=O)c1ccc2ccccc2n1)C(C)C)C(=O)N[C@H](C(=O)N[C@@H](C)C(=O)N[C@@H](CC(=O)OC)C(=O)Oc1c(F)cccc1F)C(C)C
- IC50 (in vitro inhibition of human recombinant caspase-2): 80 nM
